Experimental findings from patent US20220289837A1, “Cystic Fibrosis Transmembrane Conductance Regulator Stabilizing Agents” (VIB VZW, priority 2019, published 2022) are described below.

Data set [1] deals with T1, purified human CFTR (wt-CFTR) (Homo sapiens, UniProt P13569).
T1 construct: His10-SUMO* (N); FLAG; EGFP (C); made in house; host or cells: HEK 293 cell line D165
The data set can be described thus: Full-length CFTR ELISA. Type of data set: binding. The settings on record: for Bmax: immobilized CFTR, nanobodies titrated; for binding of purified FL-CFTR: nanobodies immobilized, purified FL-CFTR titrated. The procedure:
Strep-Tactin XT coated microplate (iba Life Science) was coated overnight at 4° C. with Twin-Strep-tagged nanobodies (5 μg/ml). Plate was blocked with 4% milk for 2 h at RT. Then different concentrations of CFTR (10^−10 to 10^−8 M) were incubated for 2 h at 4° C. CFTR binding was detected with monoclonal antibodies L12B4, MM13, 154, 660, 570, 596 specific to CFTR obtained from the CFTR Antibody Distribution Program (http://cftrantibodies.web.unc.edu/available-antibodies)46 and then anti-mouse-HRP antibody (Millipore, catalogue number: AP308P, 0.5 μg/ml) for 1 h 30 min at 4° C. For Bmax determination Pierce Nickel Coated Plate (ThermoScientific) was coated 1 h at 4° C. with CFTR (8 μg/ml). Plate was blocked with 4% milk for 2 h at 4° C. Then different concentrations of nanobodies (10^−9 to 10^−6 M) were incubated for 2 h at 4° C. Nanobody binding was detected with Myc-tag specific antibody (Sigma, catalogue number: C3956, 0.5 μg/ml) and then anti-rabbit-HRP antibody (Cell Signaling, catalogue number: 7074S, 1:1000 dilution) for 1 h 30 min at 4° C. Between each step wells were washed 3 times by aspiration with 50 mM HEPES pH 7.5, 150 mM NaCl, 10% glycerol, 2 mM ATP, 2.5 mM MgCl2, 0.01% DMNG (Anatrace). Incubations were performed in the same buffer with 0.4% milk. Reaction was visualized by using 1-Step Ultra TMB-ELISA (ThermoScientific) and stopped with H2SO4 (500 mM final). Absorbance was measured at 450 nm using SynergyMx (BioTek).
Affinity constants (KD) and thermodynamic parameters from ITC experiments were determined using one-site binding model with MicroCal Origin 7.0 software (Origin Lab Corp.). Dose response ELISA curves of each Nb binding to either isolated NBD1 or purified FL-CFTR were fitted using the sigmoidal dose-response equation from GraphPad Prism 3. DSC data were analyzed with the MicroCal Origin 7.0 software (Origin Lab Corp.), from which the unfolding temperature (Tm) was obtained.
Background: ELISA stands for enzyme-linked immunosorbent assay.

Data set [2] has as its target T2, wt-CFTR (Homo sapiens, UniProt P13569). Description: Flow cytometry on permeabilized BHK-21 cells overexpressing wt-CFTR. The format is cell-based. The arrangement: expressed in transfected cells. The settings on record: compared to negative control nanobody. The procedure: Parental BHK-21 cells (ATCC; CCL-10) and cells stably overexpressing human wt-CFTR^[43,44,47] or 2PT-F508del-CFTR, as described above, were permeabilized with 0.01% n-Dodecyl-β-D-Maltopyranoside β-DDM—Inalco) at least for 2 h on ice. In the meantime, cells were incubated with 50 μg/ml nanobodies and DRAQ7 (0.3 μM—Biostatus) to monitor the permeabilization state. Nanobody binding was detected by using His-tag specific antibody (Invitrogen, catalogue number MA1-135, 1 μg/ml) or Myc-tag specific antibody (Invitrogen, catalogue number 13-2500, 2 μg/ml) and then anti-mouse-Alexa Fluor 488 (Invitrogen, catalogue number A11001, 1.3 μg/ml) at least for 30 min on ice. Cells were washed one time between each step by centrifugation (200×g for 5 min at 4° C.). All incubations (100 μl) and washes (1.5 ml) were performed in PBS with 6% fetal bovine serum (FBS) and 0.01%13-DDM on ice. Cells fluorescence was measured with Gallios Flow Cytometer (Beckman Coulter). Data were analyzed with Kaluza software.
(Flow cytometry measures light scatter and fluorescence of single cells or particles in a stream.)

Data set [3] concerns the target T2, wt-CFTR. The data set can be described thus: ATPase activity of wt-CFTR. The format is biochemical. Details: His10-SUMO* (N); FLAG; EGFP (C); made in house; host or cells: HEK 293 cell line D165. As to conditions: saturating concentration of nanobody. The protocol: To determine effect of nanobodies on functional stability, aliquots of purified wt-CFTR (25 nM) were preincubated 1 h on ice with 1 μM nanobody (or 15 μM, in the case of G3a). Substrate α-[32P]-ATP (2 μl) was then added for measurement of ATPase activity as previously described^[48]. Then, nanobody protection against thermal denaturation was determined after a 30 min thermal challenge of the protein complexes followed by an assay of residual ATPase.

A further data set deals with T3, F508del-CFTR (Homo sapiens, UniProt P13569, DEL508-508).
T3 construct: expressed in transfected cells
Description: HS-YFP quenching assay. Type of data set: cell-based. The settings on record: HEK293T F508del-CFTR + HS-YFP, 10 μM forskolin and 3 μM VX770, 3 μM VX809 or DMSO 24 h. The procedure:
To study CFTR function in cells, we used a HS-YFP quenching assay where changes in fluorescence of halide sensitive YFP (HS-YFP) reflect halide entrance through CFTR. HEK293T cells stably expressing F508del-CFTR (or WT CFTR as a control) and a modified YFP were transiently transfected with pcDNA3-based plasmid coding either for a stabilizing nanobody (T2a, D12 or T27) or a control nanobody (not binding F508del-CFTR) and incubated with 3 μM VX809 corrector or 0.06% DMSO for 24 h. Before addition of iodide, cells are stimulated by 10 μM forskolin and 3 μM VX770 potentiator for 20 mins and YFP fluorescence signal is measured (excitation 485, emission 535 nm) over a period of 4 seconds.
The assay was performed as described previously in (Ensinck, et al. 2020) with minor modifications. Briefly, cells stably expressing wt- or F508del-CFTR and a halide sensitive yellow fluorescent protein (HS-YFP) (Galietta, et al. 2001) were transfected with plasmids encoding the nanobodies using PEI and immediately plated into black, clear-bottomed 96-well plates coated with Poly-D-Lysine. After overnight incubation VX-809 (3 μM) or DMSO was added for 24 h. Next, the cells were washed with DPBS and potentiator VX-770 (3 μM) and/or CFTR activator forskolin (#F3917, Sigma-Aldrich, 10 μM) was added for 20 min. Fluorescence was measured after which a I^− buffer (137 mM Nal, 2.7 mM KI, 1.7 mM KH2PO4, 10.1 mM Na2HPO4, 5 mM D-glucose) was injected into the well and fluorescence monitored for another 4 s. YFP quenching was determined at the end of the interval as F/F0, and CFTR function as 1-(F/F0).

T2 sequence (P13569 whole entry): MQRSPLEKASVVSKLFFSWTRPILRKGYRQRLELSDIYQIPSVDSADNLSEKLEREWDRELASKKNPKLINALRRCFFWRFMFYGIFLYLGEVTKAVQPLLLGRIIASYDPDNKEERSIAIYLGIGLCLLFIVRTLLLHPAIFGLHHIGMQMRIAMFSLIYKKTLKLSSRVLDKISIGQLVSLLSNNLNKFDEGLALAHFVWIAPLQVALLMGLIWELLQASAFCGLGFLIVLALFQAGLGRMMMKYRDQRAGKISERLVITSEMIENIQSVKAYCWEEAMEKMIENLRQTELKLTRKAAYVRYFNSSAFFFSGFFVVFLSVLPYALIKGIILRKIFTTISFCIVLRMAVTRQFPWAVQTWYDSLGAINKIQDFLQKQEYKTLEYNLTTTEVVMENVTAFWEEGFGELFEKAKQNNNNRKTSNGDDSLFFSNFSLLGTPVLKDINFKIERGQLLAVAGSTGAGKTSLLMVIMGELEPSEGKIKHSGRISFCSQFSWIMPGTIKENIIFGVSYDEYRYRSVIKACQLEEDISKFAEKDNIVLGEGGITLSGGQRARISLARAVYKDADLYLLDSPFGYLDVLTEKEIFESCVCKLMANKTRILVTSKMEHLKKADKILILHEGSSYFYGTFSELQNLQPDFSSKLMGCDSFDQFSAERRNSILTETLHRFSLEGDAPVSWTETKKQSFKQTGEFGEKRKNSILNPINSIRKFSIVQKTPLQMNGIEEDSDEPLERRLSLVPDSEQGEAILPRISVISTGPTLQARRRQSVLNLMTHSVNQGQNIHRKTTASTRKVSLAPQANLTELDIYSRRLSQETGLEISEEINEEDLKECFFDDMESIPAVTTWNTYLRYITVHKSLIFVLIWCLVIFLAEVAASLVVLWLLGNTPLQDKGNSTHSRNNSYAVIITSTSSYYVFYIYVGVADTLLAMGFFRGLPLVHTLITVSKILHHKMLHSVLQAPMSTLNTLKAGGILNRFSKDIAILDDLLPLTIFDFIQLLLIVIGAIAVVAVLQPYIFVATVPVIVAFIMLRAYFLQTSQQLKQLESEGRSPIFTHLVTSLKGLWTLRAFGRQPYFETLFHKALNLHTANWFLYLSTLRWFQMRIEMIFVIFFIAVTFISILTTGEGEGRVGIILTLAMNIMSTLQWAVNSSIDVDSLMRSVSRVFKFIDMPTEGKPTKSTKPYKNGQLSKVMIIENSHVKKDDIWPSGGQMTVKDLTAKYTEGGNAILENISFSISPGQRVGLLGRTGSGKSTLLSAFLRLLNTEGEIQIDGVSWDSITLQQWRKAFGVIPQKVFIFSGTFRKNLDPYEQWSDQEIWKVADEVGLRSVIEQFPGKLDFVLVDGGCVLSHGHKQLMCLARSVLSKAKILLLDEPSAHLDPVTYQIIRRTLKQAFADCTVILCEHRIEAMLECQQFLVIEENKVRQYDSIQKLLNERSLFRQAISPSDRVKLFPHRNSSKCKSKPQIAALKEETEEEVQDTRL
T1 sequence (P13569 whole entry): as above
T3 sequence (P13569 with tags, fused parts or gaps DEL508-508): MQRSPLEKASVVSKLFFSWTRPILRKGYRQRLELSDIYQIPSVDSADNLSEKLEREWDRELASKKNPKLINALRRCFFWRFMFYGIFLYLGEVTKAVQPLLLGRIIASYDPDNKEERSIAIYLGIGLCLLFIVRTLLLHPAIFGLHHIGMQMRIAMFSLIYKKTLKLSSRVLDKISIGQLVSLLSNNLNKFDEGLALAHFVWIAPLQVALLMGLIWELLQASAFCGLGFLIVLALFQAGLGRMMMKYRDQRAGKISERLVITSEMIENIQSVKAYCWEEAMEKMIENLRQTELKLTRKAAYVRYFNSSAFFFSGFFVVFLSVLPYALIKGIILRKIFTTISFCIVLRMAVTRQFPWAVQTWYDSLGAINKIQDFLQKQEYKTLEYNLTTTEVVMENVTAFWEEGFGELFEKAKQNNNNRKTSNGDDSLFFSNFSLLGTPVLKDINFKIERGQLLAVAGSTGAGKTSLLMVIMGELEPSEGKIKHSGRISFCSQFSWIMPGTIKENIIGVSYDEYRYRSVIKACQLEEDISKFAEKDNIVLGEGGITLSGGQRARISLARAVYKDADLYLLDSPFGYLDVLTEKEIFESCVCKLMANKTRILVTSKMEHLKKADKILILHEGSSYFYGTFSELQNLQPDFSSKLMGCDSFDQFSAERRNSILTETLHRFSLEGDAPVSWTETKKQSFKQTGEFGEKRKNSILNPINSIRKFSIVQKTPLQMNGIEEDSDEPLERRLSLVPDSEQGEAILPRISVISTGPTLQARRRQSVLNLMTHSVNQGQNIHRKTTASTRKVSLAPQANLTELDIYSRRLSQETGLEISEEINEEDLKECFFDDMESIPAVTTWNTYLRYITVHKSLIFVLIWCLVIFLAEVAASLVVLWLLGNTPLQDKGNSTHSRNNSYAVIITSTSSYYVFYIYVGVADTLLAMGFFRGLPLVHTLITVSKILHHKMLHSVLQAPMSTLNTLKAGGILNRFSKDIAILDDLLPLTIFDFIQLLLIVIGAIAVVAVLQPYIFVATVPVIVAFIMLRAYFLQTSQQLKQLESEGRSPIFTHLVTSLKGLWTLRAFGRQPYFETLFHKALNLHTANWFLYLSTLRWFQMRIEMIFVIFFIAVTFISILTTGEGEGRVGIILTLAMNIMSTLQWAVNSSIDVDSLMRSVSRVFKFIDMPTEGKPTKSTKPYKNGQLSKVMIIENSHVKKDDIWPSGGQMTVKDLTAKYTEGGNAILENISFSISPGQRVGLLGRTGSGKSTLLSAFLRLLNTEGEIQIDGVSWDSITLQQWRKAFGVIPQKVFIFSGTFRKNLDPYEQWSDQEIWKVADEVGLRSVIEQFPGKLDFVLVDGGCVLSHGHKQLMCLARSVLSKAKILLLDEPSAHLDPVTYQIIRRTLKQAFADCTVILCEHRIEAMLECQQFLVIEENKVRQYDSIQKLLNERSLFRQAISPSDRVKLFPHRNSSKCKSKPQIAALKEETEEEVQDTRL

B1: T8: nanobody, SEQ ID NO:7, binds epitope 2 including F508, stabilizes WT CFTR but not F508del (protein)
VHH: QVQLQESGGGLVQPGGSLRLSCAASGSTSSINAMGWYRQAPGKQREPVAISSSGGDTRYAEPVKGRFTISRDNAQNKVYLQMNSLKPEDTAVYYCWLNWGRTSVNSWGQGTQVTVSS
modifications: T8 Nanobody amino acid sequence
B1: in data set [1], the Bmax is reported as ~30 % of T2a maximum signal and the “binding of purified FL-CFTR” value is reported as “bind with high affinity”. The “labelling of BHK-21 cells overexpressing wt-CFTR” value (from here on “labelling”) with wt-CFTR [2] was “increased labelling”. Further, the ATPase activity with wt-CFTR [3] is recorded as 60 % of PKA-phosphorylated CFTR.

B2: D12: NBD1-specific CFTR-stabilizing nanobody, SEQ ID NO:2, binds epitope 1 (protein)
VHH: QVQLQESGGGLVQAGSSLRLACAATGSIRSINNMGWYRQAPGKQRGMVAIITRVGNTDYADSVKGRFTISRDNAKNTVYLQMNSLKPEDTATYYCHAEITEQSRPFYLTDDYWGQGTQVTVSS
modifications: D12 Nanobody amino acid sequence
B2: the “quenching of YFP (CFTR function)” value with F508del-CFTR is recorded as “quenching of YFP”. Besides, the “labelling” value in the data set with wt-CFTR [2] is reported as “increased labelling”. Besides, the ATPase activity with wt-CFTR [3] is recorded as 50 % of PKA-phosphorylated CFTR.

B3: G3a: non-stabilizing nanobody, SEQ ID NO:50, recognizes the structurally diverse region of NBD1 (protein)
VHH: QVQLQESGGGLVQAGGSLRLSCTASGRAFSWYVMGWFRQAPGKEREFVATVSGNGSRRDYADSVKGRFTISRDNAKNTVYLQMNSLKPEDTAVYYCAASSTYYYTDPEKYDYWGQGTQVTVSS
modifications: G3a Nanobody
As to B3, in data set [1], the Bmax result is “about 50 % of T2a maximum signal” and the “binding of purified FL-CFTR” value is recorded as “bind with high affinity”. In addition, the “labelling” value with wt-CFTR [2] is recorded as “increased labelling”. Moreover, the ATPase activity result with wt-CFTR [3] is “did not affect”.

B4: T2a: NBD1-specific CFTR-stabilizing nanobody, SEQ ID NO:3, binds epitope 1 (protein)
VHH: QVQLQESGGGLVQAGGSLRLSCAASGSIFRIDAMGWYRQAPGKQRELVAHSTSGGSTDYADSVKGRFTISRDNAKNTVYLQMNSLKPEDTAVYYCNADVRTRWYASNNYWGQGTQVTVSS
modifications: T2a Nanobody amino acid sequence
For B4, the “binding of purified FL-CFTR” value in data set [1] is “bind with high affinity”. Also, in the data set with F508del-CFTR, the “quenching of YFP (CFTR function)” value is “quenching of YFP”. Further, the “labelling” value with wt-CFTR [2] was “increased labelling”. Further, the ATPase activity with wt-CFTR [3] is recorded as 50 % of PKA-phosphorylated CFTR.

B5: T27: NBD1-specific CFTR-stabilizing nanobody, SEQ ID NO:4, binds epitope 1 (protein)
VHH: QVQLQESGGGLEQPGGSLRLSCATSGVIFGINAMGWYRQAPGKQRELVATFTSGGSTNYADFVEGRFTISRDNAKNTVYLQMNGLRPEDTAVYYCHATVVVSRYGLTYDYWGQGTQVTVSS
modifications: T27 Nanobody amino acid sequence
Take B5: in the data set with F508del-CFTR, the “quenching of YFP (CFTR function)” value is “quenching of YFP”. For the same molecule, in the data set with wt-CFTR [2], the “labelling” value is reported as “increased labelling”. The ATPase activity with wt-CFTR [3] was 30 % of PKA-phosphorylated CFTR.
